Key:
[1] = molecular target: T1, interleukin 18 binding protein (IL-18BP) (UniProt O95998 31-194); test: cell-based or functional assay
T1 sequence (looked up): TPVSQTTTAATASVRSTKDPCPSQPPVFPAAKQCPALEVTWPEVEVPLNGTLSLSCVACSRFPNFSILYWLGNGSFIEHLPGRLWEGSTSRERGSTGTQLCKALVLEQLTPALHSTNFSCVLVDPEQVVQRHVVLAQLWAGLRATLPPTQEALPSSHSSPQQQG

[2] = molecular target: T2, IL-18 receptors on HEK-Blue IL-18 reporter cells (UniProt Q13478 19-541; O95256 20-599, limits assumed); test: cell-based or functional assay
T2 sequence (looked up) 1: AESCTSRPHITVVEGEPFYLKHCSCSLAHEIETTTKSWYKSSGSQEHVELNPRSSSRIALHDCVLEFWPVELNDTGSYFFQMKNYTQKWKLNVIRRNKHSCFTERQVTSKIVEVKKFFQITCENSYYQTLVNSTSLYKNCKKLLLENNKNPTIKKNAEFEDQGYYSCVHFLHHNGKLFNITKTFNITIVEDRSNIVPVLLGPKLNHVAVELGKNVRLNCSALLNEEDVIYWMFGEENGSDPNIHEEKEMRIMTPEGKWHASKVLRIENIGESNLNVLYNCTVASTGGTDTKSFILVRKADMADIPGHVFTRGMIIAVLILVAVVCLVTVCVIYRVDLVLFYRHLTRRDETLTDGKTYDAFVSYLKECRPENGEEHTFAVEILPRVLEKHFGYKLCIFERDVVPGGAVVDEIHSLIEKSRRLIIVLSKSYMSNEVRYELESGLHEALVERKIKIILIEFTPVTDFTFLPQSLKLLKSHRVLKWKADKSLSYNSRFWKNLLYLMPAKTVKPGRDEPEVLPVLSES
T2 sequence (looked up) 2: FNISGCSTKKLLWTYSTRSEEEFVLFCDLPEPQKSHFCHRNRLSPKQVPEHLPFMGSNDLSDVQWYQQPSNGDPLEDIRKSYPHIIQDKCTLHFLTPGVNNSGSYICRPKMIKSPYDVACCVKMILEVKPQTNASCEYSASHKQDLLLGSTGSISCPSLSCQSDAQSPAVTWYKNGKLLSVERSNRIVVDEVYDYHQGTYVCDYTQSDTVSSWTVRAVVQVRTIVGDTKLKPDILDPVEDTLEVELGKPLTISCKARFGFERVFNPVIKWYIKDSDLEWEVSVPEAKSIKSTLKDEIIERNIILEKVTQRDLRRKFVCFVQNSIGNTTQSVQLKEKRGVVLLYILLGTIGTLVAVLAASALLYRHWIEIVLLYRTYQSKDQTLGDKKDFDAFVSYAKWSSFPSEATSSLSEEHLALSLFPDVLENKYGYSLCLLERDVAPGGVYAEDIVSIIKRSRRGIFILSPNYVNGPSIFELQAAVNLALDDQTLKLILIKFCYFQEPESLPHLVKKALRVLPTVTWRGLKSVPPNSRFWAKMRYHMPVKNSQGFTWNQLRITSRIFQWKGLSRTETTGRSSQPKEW

Row | Binder | HEK-Blue activity, +100 nM BP, DF-10000 [1] | HEK-Blue activity, +100 nM BP, DF-100,000 [1] | HEK-Blue activity, +100 nM BP, DF-1,000,000 [1] | Ratio (-BP/+BP), DF-10000 [1] | Ratio (-BP/+BP), DF-100,000 [1] | Ratio (-BP/+BP), DF-1,000,000 [1] | HEK-Blue activity, No BP, DF-10000 [2] | HEK-Blue activity, No BP, DF-100,000 [2] | HEK-Blue activity, No BP, DF-1,000,000 [2]
1 | IL-18 variant K53G, S55V, R104Y, H109N (ligand) YFGKLESKLSVIRNLNDQVLFIDQGNRPLFEDMTDSDMRDNAPRTIFIISMYGDVQPRGMAVTISVKSEKISTLSSENKIISFKEMNPPDNIKDTKSDIIFFQYSVPGNDNKMQFESSSYEGYFLASEKERDLFKLILKKEDELGDRSIMFTVQNED | 0.11 | 0.14 | 0.1 | 1.17 | 0.9 | 1.02 | 0.13 | 0.12 | 0.1
2 | IL-18 variant T34N, S36Y, D37E, D40Q, N41Q, K53D, S55D (ligand) YFGKLESKLSVIRNLNDQVLFIDQGNRPLFEDMNDYEMRQQAPRTIFIISMYDDDQPRGMAVTISVKSEKISTLSSENKIISFKEMNPPDNIKDTKSDIIFFQRSVPGHDNKMQFESSSYEGYFLASEKERDLFKLILKKEDELGDRSIMFTVQNED | 0.1 | 0.1 | 0.09 | 1.11 | 0.96 | 1 | 0.11 | 0.09 | 0.09
3 | IL-18 variant K53H, S55Y, Q56H (ligand) YFGKLESKLSVIRNLNDQVLFIDQGNRPLFEDMTDSDMRDNAPRTIFIISMYHDYHPRGMAVTISVKSEKISTLSSENKIISFKEMNPPDNIKDTKSDIIFFQRSVPGHDNKMQFESSSYEGYFLASEKERDLFKLILKKEDELGDRSIMFTVQNED | 0.12 | 0.09 | 0.09 | 1.05 | 1.03 | 0.96 | 0.12 | 0.1 | 0.09
4 | IL-18 variant K53N, S55H, H109F (ligand) YFGKLESKLSVIRNLNDQVLFIDQGNRPLFEDMTDSDMRDNAPRTIFIISMYNDHQPRGMAVTISVKSEKISTLSSENKIISFKEMNPPDNIKDTKSDIIFFQRSVPGFDNKMQFESSSYEGYFLASEKERDLFKLILKKEDELGDRSIMFTVQNED | 0.11 | 0.09 | 0.09 | 1.17 | 1.06 | 1.17 | 0.13 | 0.1 | 0.1
5 | IL-18 variant K53L, S55G (ligand) YFGKLESKLSVIRNLNDQVLFIDQGNRPLFEDMTDSDMRDNAPRTIFIISMYLDGQPRGMAVTISVKSEKISTLSSENKIISFKEMNPPDNIKDTKSDIIFFQRSVPGHDNKMQFESSSYEGYFLASEKERDLFKLILKKEDELGDRSIMFTVQNED | 0.14 | 0.11 | 0.11 | 0.87 | 0.92 | 0.89 | 0.12 | 0.1 | 0.09
6 | IL-18 variant K53H, S55R (ligand) YFGKLESKLSVIRNLNDQVLFIDQGNRPLFEDMTDSDMRDNAPRTIFIISMYHDRQPRGMAVTISVKSEKISTLSSENKIISFKEMNPPDNIKDTKSDIIFFQRSVPGHDNKMQFESSSYEGYFLASEKERDLFKLILKKEDELGDRSIMFTVQNED | 0.12 | 0.09 | 0.09 | 0.97 | 1.09 | 1 | 0.12 | 0.1 | 0.09
7 | IL-18 variant T34N, S36Y, D40H, N41T, K53G, S55Y (ligand) YFGKLESKLSVIRNLNDQVLFIDQGNRPLFEDMNDYDMRHTAPRTIFIISMYGDYQPRGMAVTISVKSEKISTLSSENKIISFKEMNPPDNIKDTKSDIIFFQRSVPGHDNKMQFESSSYEGYFLASEKERDLFKLILKKEDELGDRSIMFTVQNED | 0.11 | 0.09 | 0.09 | 1.08 | 1.02 | 0.97 | 0.12 | 0.1 | 0.09
8 | IL-18 variant K53H, S55H, N87D, H109I (ligand) YFGKLESKLSVIRNLNDQVLFIDQGNRPLFEDMTDSDMRDNAPRTIFIISMYHDHQPRGMAVTISVKSEKISTLSSENKIISFKEMDPPDNIKDTKSDIIFFQRSVPGIDNKMQFESSSYEGYFLASEKERDLFKLILKKEDELGDRSIMFTVQNED | 0.1 | 0.1 | 0.1 | 1.1 | 0.96 | 0.88 | 0.11 | 0.1 | 0.09
9 | IL-18 variant T34S, S36L, D37E, D40Y, N41M, K53T, S55K, P107K, H109Q (ligand) YFGKLESKLSVIRNLNDQVLFIDQGNRPLFEDMSDLEMRYMAPRTIFIISMYTDKQPRGMAVTISVKSEKISTLSSENKIISFKEMNPPDNIKDTKSDIIFFQRSVKGQDNKMQFESSSYEGYFLASEKERDLFKLILKKEDELGDRSIMFTVQNED | 0.1 | 0.1 | 0.09 | 1.11 | 0.98 | 0.98 | 0.11 | 0.1 | 0.09
10 | IL-18 variant K53D, S55L (ligand) YFGKLESKLSVIRNLNDQVLFIDQGNRPLFEDMTDSDMRDNAPRTIFIISMYDDLQPRGMAVTISVKSEKISTLSSENKIISFKEMNPPDNIKDTKSDIIFFQRSVPGHDNKMQFESSSYEGYFLASEKERDLFKLILKKEDELGDRSIMFTVQNED | 0.1 | 0.09 | 0.09 | 1.02 | 1.03 | 1.01 | 0.11 | 0.09 | 0.09

— patent US20240182536A1 (MURAL ONCOLOGY, published 2024)
